This is an account of results in US20090232783.

The target of this data set is Ferritin-H (expression plasmid pcEXV-1) (Homo sapiens) (UniProt P02794). Nature of the data set: cell_activity. To be noted: CV-1 cells, EKLF-stimulated CAT reporter.
Sequence of Ferritin-H (expression plasmid pcEXV-1) (Homo sapiens) (P02794 2-183): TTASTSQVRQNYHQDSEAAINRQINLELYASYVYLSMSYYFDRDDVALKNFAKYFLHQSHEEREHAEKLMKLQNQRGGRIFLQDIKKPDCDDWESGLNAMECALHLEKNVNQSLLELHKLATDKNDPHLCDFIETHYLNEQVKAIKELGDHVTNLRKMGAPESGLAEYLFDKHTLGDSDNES

As to “beta-globin -610/+20 promoter in CAT reporter”, the activity amounted to 62 % repression.
